The target of assay [1] is T1, Anti-CD28 Fab (SEQ ID NOs: 696, 697).
T1 construct: Biotinylated and captured on neutravidin coated plates in the phage ELISA
Briefly: phage ELISA; biotinylated anti-CD28 Fab on neutravidin plate, wells pre-incubated with CD28 antigen as competitor, anti-M13 HRP detection. On the technique in general: ELISA stands for enzyme-linked immunosorbent assay.
T1 sequence (VH, as listed by the source, chain 1 of 2): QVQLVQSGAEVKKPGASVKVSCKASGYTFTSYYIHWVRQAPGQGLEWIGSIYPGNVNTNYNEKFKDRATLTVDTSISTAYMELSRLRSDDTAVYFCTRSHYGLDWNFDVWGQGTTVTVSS
T1 sequence (VL, as listed by the source, chain 2 of 2): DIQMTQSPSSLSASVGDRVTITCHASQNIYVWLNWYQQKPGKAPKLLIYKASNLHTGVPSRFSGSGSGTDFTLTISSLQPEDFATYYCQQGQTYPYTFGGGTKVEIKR
Method: (§1) Clonal phage were harvested as crude supematants and screened via standard ELISAs. […] Prior to the addition of clonal phage, wells were incubated with blocking buffer and CD28 antigen or blocking buffer alone. Without washing or aspirating, clonal phage supematants were then added to the wells and incubated for a short time. Wells were then washed followed by detection of bound phage using a horse radish conjugated anti-M13 antibody.

The target is the same in assay [2]. As to the kind of experiment: phage ELISA; biotinylated anti-CD28 Fab on neutravidin plate, clonal phage supernatant, anti-M13 HRP detection.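 Note: before phage addition, wells were pretreated with either CD28 antigen in blocking buffer or only blocking buffer, and phage was added without an intervening wash.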
Target sequence in this assay (VH, as listed by the source, chain 1 of 2): as the sequence (VH, as listed by the source, chain 1 of 2) above
Target sequence in this assay (VL, as listed by the source, chain 2 of 2): as the sequence (VL, as listed by the source, chain 2 of 2) above
Method: as §1
The target of assay [3] is T2, Anti-PSMA Fab (SEQ ID NOs: 19, 20).
T2 construct: also called 006 PSMA Fab
As to the kind of experiment: phage binding ELISA; biotinylated PSMA Fab on neutravidin plate pre-incubated with PSMA antigen (competitor), anti-M13 HRP detection.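 Note: competition ELISA where clonal phage supernatants were added to wells preincubated with PSMA antigen or with blocking buffer only as control, bound phage read via HRP-coupled anti-M13 antibody.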
Method: (§2) Clonal phage were harvested as crude supernatants and screened via standard ELISAs. […] Prior to the addition of clonal phage. wells were incubated with blocking buffer and PSMA antigen or blocking buffer alone. Without washing or aspirating, clonal phage supernatants were then added to the wells and incubated for a short time. Wells were then washed followed by detection of bound phage using a horse radish conjugated anti-M13 antibody.

Assay [4] shares this target. Briefly: phage binding ELISA; biotinylated PSMA Fab on neutravidin plate, clonal phage supernatant, anti-M13 HRP detection.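 Note: wells were preincubated with blocking buffer either containing PSMA antigen or without it before crude phage supernatant was added, briefly incubated, then washed prior to detection.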
Method: as §2
For assay [5], the target named is T3, PSMA Fab (biotinylated (site not stated)).
T3 construct: Biotinylated PSMA Fab captured on neutravidin coated plates for the clonal phage ELISA; also called Anti-PSMA Fab; 006 PSMA Fab
As to the kind of experiment: clonal phage supernatant ELISA on biotinylated PSMA Fab captured on neutravidin; anti-M13-HRP detection.

The target in assay [6] is T3, PSMA Fab. Briefly: clonal phage supernatant ELISA on PSMA Fab pre-incubated with PSMA antigen as competitor; anti-M13-HRP detection.
Method: as §2
The target in assay [7] is Anti-CD28 Fab (SEQ ID NOs: 696, 697). Briefly: phage binding ELISA on captured anti-CD28 Fab, wells pre-incubated with CD28 antigen as competitor.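 Note: crude clonal phage supernatants added to wells preloaded with CD28 antigen, bound phage read by HRP-conjugated anti-M13 antibody, control wells got blocking buffer alone without CD28.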
Target sequence in this assay (VH, as listed by the source, chain 1 of 2): as the sequence (VH, as listed by the source, chain 1 of 2) above
Target sequence in this assay (VL, as listed by the source, chain 2 of 2): as the sequence (VL, as listed by the source, chain 2 of 2) above
Method: (§3) After panning, phage infected bacteria were plated out and colonies picked into 96 well blocks. Clonal phage was then amplified and separated from bacterial cells via centrifugation.
(§4) Clonal phage were harvested as crude supematants and screened via standard ELISAs. […] Prior to the addition of clonal phage, wells were incubated with blocking buffer and CD28 antigen or blocking buffer alone. Without washing or aspirating, clonal phage supematants were then added to the wells and incubated for a short time. Wells were then washed followed by detection of bound phage using a horse radish conjugated anti-M13 antibody. Clonal phage of interest were then sent for sequence analysis.
Assay [8] shares this target. Briefly: phage binding ELISA, clonal phage on biotinylated anti-CD28 Fab captured on neutravidin plates.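 Note: crude clonal phage supernatants added to wells pretreated with CD28 antigen or blocking buffer only, bound phage detected by HRP-linked anti-M13 antibody.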
Target sequence in this assay (VH, as listed by the source, chain 1 of 2): as the sequence (VH, as listed by the source, chain 1 of 2) above
Target sequence in this assay (VL, as listed by the source, chain 2 of 2): as the sequence (VL, as listed by the source, chain 2 of 2) above
Method: as §3, §4

From patent US20260242478A1 (published 2026) come the findings set out here.

In the case of WCDQFFHYKWPLCL [Phage-1573], the “Phage binding ELISA, Anti-CD28 Fab signal in the presence of CD28” value in assay [1] was 0.07. Also, the “Phage binding ELISA, Anti-CD28 Fab signal” value in assay [2] worked out at 1.42.
On to WCGVGMDWRWPECL [Phage-1569], for which, in assay [1], the “Phage binding ELISA, Anti-CD28 Fab signal in the presence of CD28” value worked out at 0.16. Further, the “Phage binding ELISA, Anti-CD28 Fab signal” value in assay [2] worked out at 1.44.
As to VQIQCRPAWMCLGF (peptide, not shown: large carriers, Clonal phage supernatant) [Phage-1794], the “Anti-PSMA Fab signal in the presence of PSMA” value (from here on “Anti-PSMA Fab signal”) in assay [3] is 0.127. The “Anti-PSMA Fab (SEQ ID NOs: 19, 20) signal” value in assay [4] amounted to 2.44.
Turning to TCSAGATYMWPACF [Phage-1567], the “Phage binding ELISA, Anti-CD28 Fab signal in the presence of CD28” value in assay [1] worked out at 0.1. The “Phage binding ELISA, Anti-CD28 Fab signal” value in assay [2] was determined as 1.44.
With TCSAGATYAWPACF [Phage-1568], the “Phage binding ELISA, Anti-CD28 Fab signal in the presence of CD28” value in assay [1] came to 0.08. The “Phage binding ELISA, Anti-CD28 Fab signal” value in assay [2] is 1.44.

B1: Phage-3104 (peptide)
peptide: GEVLCRPAWMCSGF
notes: Clonal phage of the peptide-180 library; not shown: pIII filament protein of the bacteriophage, fused to the peptide
For the molecule B1, in the assay with PSMA Fab [5], the “Phage binding ELISA signal, Anti-PSMA Fab” value was determined as 2.09. In the assay with PSMA Fab [6], the “Phage binding ELISA signal, Anti-PSMA Fab with PSMA antigen” value came to 0.11.

B2: Phage-1320 (peptide)
peptide: YCAGHIPQYLNKCL
notes: Peptide-87 library clone, tested as clonal phage (peptide fused to pIII of the bacteriophage)
Take B2: the “Anti-CD28 Fab signal in the presence of CD28 (phage binding ELISA)” value in assay [7] turned out to be 0.07. Also, the “Anti-CD28 Fab signal (phage binding ELISA)” value in assay [8] came out at 0.49.

B3: Phage-1324 (peptide)
peptide: YCEGHMQWYMAKCL
notes: as for B2
For B3, in assay [7], the “Anti-CD28 Fab signal in the presence of CD28 (phage binding ELISA)” value was found to be 0.09. Further, the “Anti-CD28 Fab signal (phage binding ELISA)” value in assay [8] amounted to 0.45.
As for TCEDGFHFSWPECF [Phage-1570], in assay [1], the “Phage binding ELISA, Anti-CD28 Fab signal in the presence of CD28” value is 0.07. In addition, the “Phage binding ELISA, Anti-CD28 Fab signal” value in assay [2] was 1.44.
Consider TCSAGATYTWPSCF [Phage-1572], for which the “Phage binding ELISA, Anti-CD28 Fab signal in the presence of CD28” value in assay [1] is 0.06. Moreover, in assay [2], the “Phage binding ELISA, Anti-CD28 Fab signal” value came out at 1.42.

B4: Phage-1802 (peptide, not shown: large carriers)
peptide: LHVYCVPEWMCAGF
notes: Clonal phage supernatant; also called Peptide-272
With B4, in assay [3], the “Anti-PSMA Fab signal” value was 0.109. Also, the “Anti-PSMA Fab (SEQ ID NOs: 19, 20) signal” value in assay [4] was determined as 2.38.

B5: Phage-1326 (peptide)
peptide: YCDGHDEQYLMKCL
notes: as for B2
On to B5, for which the “Anti-CD28 Fab signal in the presence of CD28 (phage binding ELISA)” value in assay [7] came to 0.07. The “Anti-CD28 Fab signal (phage binding ELISA)” value in assay [8] turned out to be 0.44.

B6: Phage-3103 (peptide)
peptide: GEILCRPAWMCYGF
notes: as for B1
As to B6, the “Phage binding ELISA signal, Anti-PSMA Fab” value with PSMA Fab [5] came out at 2.09. Moreover, in the assay with PSMA Fab [6], the “Phage binding ELISA signal, Anti-PSMA Fab with PSMA antigen” value stood at 0.119.
Turning to LCAAGATYPWPICL [Phage-1562], the “Phage binding ELISA, Anti-CD28 Fab signal in the presence of CD28” value in assay [1] was 0.08. The “Phage binding ELISA, Anti-CD28 Fab signal” value in assay [2] was 1.46.
In the case of AEVKCIPQWMCQGF (peptide, not shown: large carriers, Clonal phage supernatant) [Phage-1795], the “Anti-PSMA Fab signal” value in assay [3] was 0.0852. In addition, in assay [4], the “Anti-PSMA Fab (SEQ ID NOs: 19, 20) signal” value is 2.43.
On the same counts, the results for AVKACIPEWMCIGF (peptide, not shown: large carriers, Clonal phage supernatant) [Phage-1793] are 0.106 and 2.44.
Consider TCSAGFSYKWPWCW [Phage-1564], for which the “Phage binding ELISA, Anti-CD28 Fab signal in the presence of CD28” value in assay [1] turned out to be 0.06. The “Phage binding ELISA, Anti-CD28 Fab signal” value in assay [2] amounted to 1.45.

B7: Phage-1321 (peptide)
peptide: YCDGHSTEYMWKCL
notes: as for B2
As to B7, the “Anti-CD28 Fab signal in the presence of CD28 (phage binding ELISA)” value in assay [7] came out at 0.06. In addition, in assay [8], the “Anti-CD28 Fab signal (phage binding ELISA)” value was determined as 0.49.
Regarding YFVQCRPAWMCEGF (peptide, not shown: large carriers, Clonal phage supernatant) [Phage-1791], the “Anti-PSMA Fab signal” value in assay [3] came out at 0.339. For the same molecule, the “Anti-PSMA Fab (SEQ ID NOs: 19, 20) signal” value in assay [4] worked out at 2.51.
Turning to TCAAGANWHWPWCF [Phage-1561], the “Phage binding ELISA, Anti-CD28 Fab signal in the presence of CD28” value in assay [1] was 0.15. Also, the “Phage binding ELISA, Anti-CD28 Fab signal” value in assay [2] was determined as 1.46.

B8: Phage-1322 (peptide)
peptide: YCEGHIKDYMTKCL
notes: as for B2
In the case of B8, in assay [7], the “Anti-CD28 Fab signal in the presence of CD28 (phage binding ELISA)” value is 0.08. The “Anti-CD28 Fab signal (phage binding ELISA)” value in assay [8] amounted to 0.47.

B9: Phage-1323 (peptide)
peptide: YCAGHDAEYMQKCL
notes: as for B2
Turning to B9, in assay [7], the “Anti-CD28 Fab signal in the presence of CD28 (phage binding ELISA)” value worked out at 0.06. In assay [8], the “Anti-CD28 Fab signal (phage binding ELISA)” value turned out to be 0.46.

B10: Phage-1800 (peptide, not shown: large carriers)
peptide: ESRLCVPAWMCAGF
notes: Clonal phage supernatant; also called Peptide-270
Turning to B10, the “Anti-PSMA Fab signal” value in assay [3] worked out at 0.103. Further, in assay [4], the “Anti-PSMA Fab (SEQ ID NOs: 19, 20) signal” value came to 2.41.
Take VEKVCKPVWMCVGF (peptide, not shown: large carriers, Clonal phage supernatant) [Phage-1798]: the “Anti-PSMA Fab signal” value in assay [3] amounted to 0.156. Besides, the “Anti-PSMA Fab (SEQ ID NOs: 19, 20) signal” value in assay [4] was 2.41.

B11: Phage-3105 (peptide)
peptide: QEIRCEPIWMCWGF
notes: as for B1
As for B11, the “Phage binding ELISA signal, Anti-PSMA Fab” value with PSMA Fab [5] came to 2.09. The “Phage binding ELISA signal, Anti-PSMA Fab with PSMA antigen” value in the assay with PSMA Fab [6] turned out to be 0.147.
Turning to TCAAGAHYSWPFCM [Phage-1575], the “Phage binding ELISA, Anti-CD28 Fab signal in the presence of CD28” value in assay [1] was 0.07. In addition, the “Phage binding ELISA, Anti-CD28 Fab signal” value in assay [2] was determined as 1.42.

B12: Phage-1790 (peptide, not shown: large carriers)
peptide: EPKWCVPRGLCNYD
notes: Clonal phage supernatant; also called Peptide-240
As to B12, the “Anti-PSMA Fab signal” value in assay [3] came out at 0.0587. Moreover, the “Anti-PSMA Fab (SEQ ID NOs: 19, 20) signal” value in assay [4] came out at 1.14.

B13: Phage-3102 (peptide)
peptide: DFAYCKPEWMCVGF
notes: as for B1
Regarding B13, in the assay with PSMA Fab [5], the “Phage binding ELISA signal, Anti-PSMA Fab” value stood at 2.09. The “Phage binding ELISA signal, Anti-PSMA Fab with PSMA antigen” value with PSMA Fab [6] is 0.0844.
Take SCSAGALWKWPVCF [Phage-1563]: in assay [1], the “Phage binding ELISA, Anti-CD28 Fab signal in the presence of CD28” value came to 0.07. Besides, the “Phage binding ELISA, Anti-CD28 Fab signal” value in assay [2] was 1.45.
On the same counts, the results for SCAAGATYVWPMCF [Phage-1574] are 0.07 and 1.42.

B14: Phage-1317 (peptide)
peptide: YCDGHAAMYMSKCL
notes: as for B2
As for B14, the “Anti-CD28 Fab signal in the presence of CD28 (phage binding ELISA)” value in assay [7] was 0.07. In addition, the “Anti-CD28 Fab signal (phage binding ELISA)” value in assay [8] came to 0.5.
In the case of FTNYCVPSWMCTGF (peptide, not shown: large carriers, Clonal phage supernatant) [Phage-1797], the “Anti-PSMA Fab signal” value in assay [3] was found to be 0.129. Besides, the “Anti-PSMA Fab (SEQ ID NOs: 19, 20) signal” value in assay [4] stood at 2.42.
Regarding EEPLCRPVWMCEGF (peptide, not shown: large carriers, Clonal phage supernatant) [Phage-1799], the “Anti-PSMA Fab signal” value in assay [3] came out at 0.117. Besides, in assay [4], the “Anti-PSMA Fab (SEQ ID NOs: 19, 20) signal” value was 2.41.

B15: Phage-1319 (peptide)
peptide: YCAGHAQEYMRKCL
notes: as for B2
For the molecule B15, in assay [7], the “Anti-CD28 Fab signal in the presence of CD28 (phage binding ELISA)” value is 0.07. The “Anti-CD28 Fab signal (phage binding ELISA)” value in assay [8] is 0.49.
Take TAHHCKPAWMCTGF (peptide, not shown: large carriers, Clonal phage supernatant) [Phage-1796]: the “Anti-PSMA Fab signal” value in assay [3] stood at 0.103. The “Anti-PSMA Fab (SEQ ID NOs: 19, 20) signal” value in assay [4] was 2.42.

B16: Phage-1318 (peptide)
peptide: YCEGHLGLYMKKCL
notes: as for B2
As to B16, in assay [7], the “Anti-CD28 Fab signal in the presence of CD28 (phage binding ELISA)” value came out at 0.06. In assay [8], the “Anti-CD28 Fab signal (phage binding ELISA)” value amounted to 0.49.

B17: Phage-1325 (peptide)
peptide: YCEGHAPVYMQKCL
notes: as for B2
Take B17: the “Anti-CD28 Fab signal in the presence of CD28 (phage binding ELISA)” value in assay [7] stood at 0.08. Moreover, the “Anti-CD28 Fab signal (phage binding ELISA)” value in assay [8] was 0.44.
On to SCSAGAMYQWPLCF [Phage-1565], for which the “Phage binding ELISA, Anti-CD28 Fab signal in the presence of CD28” value in assay [1] was 0.09. Besides, the “Phage binding ELISA, Anti-CD28 Fab signal” value in assay [2] came to 1.44.
As for IVPLCKPAWMCKLF (peptide, not shown: large carriers, Clonal phage supernatant) [Phage-1792], the “Anti-PSMA Fab signal” value in assay [3] stood at 0.221. The “Anti-PSMA Fab (SEQ ID NOs: 19, 20) signal” value in assay [4] was 2.48.
Take EDILCKPKWMCEGF (peptide, not shown: large carriers, Clonal phage supernatant) [Phage-1801]: the “Anti-PSMA Fab signal” value in assay [3] was determined as 0.109. Also, in assay [4], the “Anti-PSMA Fab (SEQ ID NOs: 19, 20) signal” value was determined as 2.4.
